Test results published in patent US20260000781A1, “FC CONJUGATES INCLUDING AN INHIBITOR OF CD73 AND USES THEREOF” (Cidara Therapeutics, Inc., priority 2022, published 2026).
Where two headings read alike, the source gives them in different places.

Tests used:
[1] = target: T1, human CD73 expressed on cells (human) (UniProt P21589); assay: flow cytometry, MDA-MB-231 cells, anti-human Fc detection, gMFI; with 100 µM AMP
T1 sequence (looked up): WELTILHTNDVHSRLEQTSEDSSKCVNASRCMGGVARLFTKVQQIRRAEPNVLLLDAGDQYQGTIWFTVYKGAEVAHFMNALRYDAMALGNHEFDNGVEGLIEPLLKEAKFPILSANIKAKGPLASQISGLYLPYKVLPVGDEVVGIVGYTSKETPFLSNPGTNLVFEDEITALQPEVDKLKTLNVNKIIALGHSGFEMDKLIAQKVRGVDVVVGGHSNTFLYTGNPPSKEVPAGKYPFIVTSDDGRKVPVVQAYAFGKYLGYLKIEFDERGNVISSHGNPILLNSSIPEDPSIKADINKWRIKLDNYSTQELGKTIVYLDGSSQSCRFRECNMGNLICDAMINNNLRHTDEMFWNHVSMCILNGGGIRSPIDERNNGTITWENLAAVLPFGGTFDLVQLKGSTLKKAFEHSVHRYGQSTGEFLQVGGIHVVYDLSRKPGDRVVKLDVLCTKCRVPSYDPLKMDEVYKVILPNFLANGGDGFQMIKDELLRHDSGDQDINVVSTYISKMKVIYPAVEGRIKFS

[2] = target: T1, human CD73 expressed on cells (human); assay: flow cytometry, MDA-MB-231 cells, anti-human Fc detection, gMFI; with 100 nM AB680
[3] = target: T1, human CD73 expressed on cells (human); assay: flow cytometry, MDA-MB-231 cells, anti-human Fc detection, gMFI
[4] = target: T1, human CD73 expressed on cells (human); assay: flow cytometry, MDA-MB-231 cells, anti-human Fc detection, gMFI; with 100 nM AB680; remark: listed apart in the source
[5] = target: T1, human CD73 expressed on cells (human); assay: flow cytometry, MDA-MB-231 cells, anti-human Fc detection, gMFI; with 10 nM AB680
[6] = target: T1, human CD73 expressed on cells (human); assay: flow cytometry, MDA-MB-231 cells, anti-human Fc detection, gMFI; with 1 nM AB680
[7] = target: T1, human CD73 expressed on cells (human); assay: cell-based or functional assay
[8] = target: T1, human CD73 expressed on cells (human); assay: flow cytometry, MDA-MB-231 cells, anti-human Fc detection, gMFI; 0 nM AB680
[9] = target: T1, human CD73 expressed on cells (human); assay: flow cytometry, MDA-MB-231 cells, PE anti-human Fc detection, % labelled cells
[10] = target: T1, human CD73 expressed on cells (human); assay: flow cytometry, MDA-MB-231 cells, anti-human Fc detection, gMFI; with 10 nM AB680; remark: listed apart in the source
[11] = target: T1, human CD73 expressed on cells (human); assay: flow cytometry, MDA-MB-231 cells, anti-human Fc detection, gMFI; with 1,000 µM AMP
[12] = target: T1, human CD73 expressed on cells (human); assay: flow cytometry, MDA-MB-231 cells, anti-human Fc detection, gMFI; no AB680 (column headed No AMP)
[13] = target: T1, human CD73 expressed on cells (human); assay: flow cytometry, MDA-MB-231 cells, anti-human Fc detection, gMFI; with 10 µM AMP
[14] = target: T1, human CD73 expressed on cells (human); assay: flow cytometry, MDA-MB-231 cells, anti-human Fc detection, gMFI; with 100 µM AMP; remark: listed apart in the source
[15] = target: T1, human CD73 expressed on cells (human); assay: flow cytometry, MDA-MB-231 cells, anti-human Fc detection, gMFI; 0 µM AMP
[16] = target: T1, human CD73 expressed on cells (human); assay: flow cytometry, MDA-MB-231 cells, anti-human Fc detection, gMFI; with 1,000 µM AMP; remark: listed apart in the source
[17] = target: T1, human CD73 expressed on cells (human); assay: flow cytometry, MDA-MB-231 cells, anti-human Fc detection, gMFI; with 10 µM AMP; remark: listed apart in the source
[18] = target: T1, human CD73 expressed on cells (human); assay: flow cytometry, MDA-MB-231 cells, anti-human Fc detection, gMFI; with 1 nM AB680; remark: listed apart in the source
[19] = target: T1, human CD73 expressed on cells (human); assay: cell-based or functional assay; remark: listed apart in the source
[20] = target: T1, human CD73 expressed on cells (human); assay: flow cytometry, MDA-MB-231 cells, anti-human Fc detection, gMFI; no AMP
[21] = target: T2, recombinant human CD73 enzyme (human) (UniProt P21589); assay: cell-based or functional assay
T2 sequence (looked up): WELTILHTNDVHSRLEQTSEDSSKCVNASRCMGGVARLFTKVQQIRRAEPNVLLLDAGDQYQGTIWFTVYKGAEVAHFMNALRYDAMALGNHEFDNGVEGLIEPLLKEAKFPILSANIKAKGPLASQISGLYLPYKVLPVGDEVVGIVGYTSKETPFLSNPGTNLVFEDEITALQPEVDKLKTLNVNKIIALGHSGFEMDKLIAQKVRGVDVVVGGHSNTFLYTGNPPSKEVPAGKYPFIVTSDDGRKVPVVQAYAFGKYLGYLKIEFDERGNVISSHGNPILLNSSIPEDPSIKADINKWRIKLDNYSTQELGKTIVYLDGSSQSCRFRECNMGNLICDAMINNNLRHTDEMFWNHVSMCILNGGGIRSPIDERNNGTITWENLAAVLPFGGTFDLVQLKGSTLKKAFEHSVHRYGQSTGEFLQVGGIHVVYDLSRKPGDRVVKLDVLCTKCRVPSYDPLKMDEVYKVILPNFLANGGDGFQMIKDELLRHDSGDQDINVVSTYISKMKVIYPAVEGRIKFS

[22] = target: T1, human CD73 expressed on cells (human); assay: cell-based or functional assay; remark: listed apart in the source

B1: Mupadolimab (antibody, INN chains, looked up, V domains shown)
VH: QVQLVQSGAEVEKPGASVKVSCKASGYTFTSYWITWVRQAPGQGLEWMGDIYPGSGNTNYNEKFKTRVTITADKSTSTAYMELSSLRSEDTAVYYCAKEGGLTTEDYALDYWGQGTLVTVSS
VL: EIVLTQSPATLSLSPGERATLSCRASKNVSTSGYSYMHWYQQKPGQAPRLLIYLASNLESGIPPRFSGSGYGTDFTLTINNIESEDAAYYFCQHSRELPFTFGQGTKVEIK
IC50 [1]: 0.16 nM | IC50 [2]: 4.19 nM | fold reduction of binding at high AMP concentration [3]: 2 fold | IC50 [4]: 8.48 nM | IC50 [5]: 1.54 nM | IC50 [6]: 0.88 nM | Cell internalization EC50 (nM), Fab-ZAP saporin assay, MDA-MB-231 [7]: 0.06 nM | IC50 [8]: 0.1 nM | EC50 [9]: 1.25 nM | IC50 [10]: 2.59 nM | IC50 [11]: 0.2 nM | IC50 [12]: 0.09 nM | IC50 [13]: 0.12 nM | IC50 [14]: 0.12 nM | IC50 [15]: 0.1 nM | IC50 [16]: 0.14 nM | IC50 [17]: 0.048 nM | IC50 [18]: 1.39 nM | % CD73 receptor internalization, MDA-MB-231 [19]: > 60% | IC50 [20]: 0.025 nM | Cell free CD73 inhibition IC50 [21]: > 100 nM | % CD73 receptor internalization, MDA-MB-231 [22]: > 70% | CD73 inhibition, human PBMCs, 3 h IC50 [nM] [22]: 2.85 nM | CD73 inhibition, human PBMCs, 3 h median IC50 [nM] [22]: 9.27 nM | CD73 inhibition, human PBMCs, 24 h IC50 [nM] [22]: 44.2 nM | CD73 inhibition, human PBMCs, 24 h median IC50 [nM] [22]: 29.9 nM | Cell internalization EC50 (nM), Fab-ZAP saporin assay, MDA-MB-231 [22]: 0.055 nM | Cell-based CD73 inhibition IC50 (nM), MDA-MB-231 cells [22]: 3.82 nM | PBMC activation (CD25+), 30 µM AMP EC50 [nM] [22]: 576 nM | PBMC activation, CD4+CD25+ EC50 [nM] (median, n = 3) [22]: 28 nM | PBMC activation, CD8+CD25+ EC50 [nM] [22]: 932 nM | PBMC activation, CD8+CD25+ EC50 [nM] (median, n = 3) [22]: 84 nM | PBMC activation, CD8+Granzyme B+ EC50 [nM] (median, n = 3) [22]: 83 nM | PBMC activation, CD8+granzyme B+ EC50 [nM] [22]: 63.1 nM | cell-based CD73 enzyme inhibition IC50 (MDA-MB-231 cells) [22]: 1.16 nM | inhibition of adenosine production (AMP conversion by CellTiter-Glo), human PBMCs, EC50 [nM] [22]: 10 nM
